Measured values from patent US20260242419A1, “A CYCLIC PEPTIDE FOR TRAPPING INTERLEUKIN-1 BETA” (Merck Sharp & Dohme LLC, priority 2023, published 2026).
Starred links: 1 amine or outer side, 2 acyl side, 3 side chain; linkers in the order of their positions; H or OH if unused. Non-standard residues stand in square brackets, D forms with d. dProc4Bn4Br = (2R,4R)-4-[(4-bromophenyl)methyl]pyrrolidine-2-carboxylic acid, O=C([C@H]1C[C@@H](Cc2ccc(Br)cc2)CN1[*:1])[*:2]; Trp(4-Cl)(βS-Me) = C[C@@H](c1c[nH]c2cccc(Cl)c12)[C@H](N)C(=O)O; Trp(βS-Me,4-F) = C[C@@H](c1c[nH]c2cccc(F)c12)[C@H](N)C(=O)O; Bip(4'-COOH) = N[C@@H](Cc1ccc(-c2ccc(C(=O)O)cc2)cc1)C(=O)O; Ala(1-bicyclo(1.1.1)pentyl) = N[C@@H](CC12CC(C1)C2)C(=O)O; dPro(4R-Bzl(4-F)) = O=C(O)[C@H]1C[C@@H](Cc2ccc(F)cc2)CN1; 1Nal(3S-Me) = C[C@@H](c1cccc2ccccc12)[C@H](N)C(=O)O; Ala(pyrimidin-5-yl) = N[C@@H](Cc1cncnc1)C(=O)O; Phe(4-COOH) = N[C@@H](Cc1ccc(C(=O)O)cc1)C(=O)O; dαMeDab = C[C@](CCN[*:3])(N[*:1])C(=O)[*:2]; Pro(cis-4-F) = O=C(O)[C@@H]1C[C@H](F)CN1; Ala(4-THP) = N[C@@H](CC1CCOCC1)C(=O)O; d(αMeK) = C[C@@](N)(CCCCN)C(=O)O; 4Pal = N[C@@H](Cc1ccncc1)C(=O)O; aThr = C[C@H](O)[C@H](N)C(=O)O; αMeD = C[C@](N)(CC(=O)O)C(=O)O; αMeK = C[C@](N)(CCCCN)C(=O)O; hSer = N[C@@H](CCO)C(=O)O; Dab = NCC[C@H](N)C(=O)O; Aib = CC(C)(N)C(=O)O

B1: SEQ ID NO: 148 (peptide)
peptide: cyclo([Bip(4'-COOH)][4Pal][Phe(4-COOH)]G[Pro(cis-4-F)][Trp(4-Cl)(βS-Me)][Aib]EW[Aib][Ala(pyrimidin-5-yl)]Q[Dab]G[dPro(4R-Bzl(4-F))])
modifications: ring closure inferred; not fully specified (bridges); printed as Bip4CO2H-4Pal-Phe4COOH-G-Proc4F-sbMeW4Cl-Aib-E-W-Aib-PyrimAla-Q-Dab-G-dProc4Bn4F, cyclic (macrolactam)
B2: SEQ ID NO: 137 (peptide)
peptide: cyclo([Bip(4'-COOH)][4Pal][Phe(4-COOH)]G[Pro(cis-4-F)][Trp(βS-Me,4-F)][Aib]TW[αMeK][Ala(pyrimidin-5-yl)]Q[Dab]G[dPro(4R-Bzl(4-F))])
modifications: ring closure inferred; not fully specified (bridges); printed as Bip4CO2H-4Pal-Phe4COOH-G-Proc4F-SbMeW4F-Aib-T-W-aMeK-PyrimAla-Q-Dab-G-dProc4Bn4F
B3: SEQ ID NO: 146 (peptide)
peptide: cyclo([Bip(4'-COOH)][Ala(1-bicyclo(1.1.1)pentyl)][Phe(4-COOH)]G[Pro(cis-4-F)][Trp(βS-Me,4-F)][Aib]SW[αMeK][Ala(4-THP)]Q[Dab]G[dPro(4R-Bzl(4-F))])
modifications: ring closure inferred; not fully specified (bridges); printed as Bip4CO2H-AlaPent-Phe4COOH-G-Proc4F-SbMeW4F-Aib-S-W-aMeK-AlaTHP4-Q-Dab-G-dProc4Bn4F, cyclic (macrolactam)
B4: SEQ ID NO: 138 (peptide)
peptide: cyclo([Bip(4'-COOH)][4Pal][Phe(4-COOH)]G[Pro(cis-4-F)][Trp(βS-Me,4-F)][Aib][aThr]W[αMeK][Ala(pyrimidin-5-yl)]Q[Dab]G[dPro(4R-Bzl(4-F))])
modifications: ring closure inferred; not fully specified (bridges); printed as Bip4CO2H-4Pal-Phe4COOH-G-Proc4F-SbMeW4F-Aib-alT-W-aMeK-PyrimAla-Q-Dab-G-dProc4Bn4F
B5: SEQ ID NO: 143 (peptide)
peptide: cyclo([Bip(4'-COOH)][4Pal][Phe(4-COOH)]G[Pro(cis-4-F)][Trp(βS-Me,4-F)][Aib]EW[Aib][Ala(pyrimidin-5-yl)]Q[Dab]G[dProc4Bn4Br])
modifications: ring closure inferred; not fully specified (bridges); printed as Bip4CO2H-4Pal-Phe4COOH-G-Proc4F-sbMeW4F-Aib-E-W-Aib-PyrimAla-Q-Dab-G-dProc4Bn4Br, cyclic (macrolactam)
B6: SEQ ID NO: 144 (peptide)
peptide: cyclo([Bip(4'-COOH)][Ala(1-bicyclo(1.1.1)pentyl)][Phe(4-COOH)]G[Pro(cis-4-F)][Trp(βS-Me,4-F)][Aib]SW[αMeK][Ala(pyrimidin-5-yl)]Q[Dab]G[dPro(4R-Bzl(4-F))])
modifications: ring closure inferred; not fully specified (bridges); printed as Bip4CO2H-AlaPent-Phe4COOH-G-Proc4F-SbMeW4F-Aib-S-W-aMeK-PyrimAla-Q-Dab-G-dProc4Bn4F, cyclic (macrolactam)
B7: SEQ ID NO: 141 (peptide)
peptide: cyclo([Bip(4'-COOH)][4Pal][Phe(4-COOH)]G[Pro(cis-4-F)][Trp(βS-Me,4-F)][Aib]SW[αMeD][Ala(pyrimidin-5-yl)]Q[Dab]G[dPro(4R-Bzl(4-F))])
modifications: ring closure inferred; not fully specified (bridges); printed as Bip4CO2H-4Pal-Phe4COOH-G-Proc4F-SbMeW4F-Aib-S-W-aMeD-PyrimAla-Q-Dab-G-dProc4Bn4F
B8: SEQ ID NO: 145 (peptide)
peptide: cyclo([Bip(4'-COOH)][Ala(1-bicyclo(1.1.1)pentyl)][Phe(4-COOH)]G[Pro(cis-4-F)][Trp(βS-Me,4-F)][Aib]SW[d(αMeK)][Ala(pyrimidin-5-yl)]Q[Dab]G[dPro(4R-Bzl(4-F))])
modifications: ring closure inferred; not fully specified (bridges); printed as Bip4CO2H-AlaPent-Phe4COOH-G-Proc4F-SbMeW4F-Aib-S-W-daMeK-PyrimAla-Q-Dab-G-dProc4Bn4F, cyclic (macrolactam)
B9: SEQ ID NO: 147 (peptide)
peptide: cyclo([Bip(4'-COOH)][Ala(1-bicyclo(1.1.1)pentyl)][Phe(4-COOH)]G[Pro(cis-4-F)][Trp(βS-Me,4-F)][Aib][hSer]W[αMeK][Ala(pyrimidin-5-yl)]Q[Dab]G[dPro(4R-Bzl(4-F))])
modifications: ring closure inferred; not fully specified (bridges); printed as Bip4CO2H-AlaPent-Phe4COOH-G-Proc4F-SbMeW4F-Aib-hS-W-aMeK-PyrimAla-Q-Dab-G-dProc4Bn4F, cyclic (macrolactam)
B10: SEQ ID NO: 139 (peptide)
peptide: cyclo([Bip(4'-COOH)][4Pal][Phe(4-COOH)]G[Pro(cis-4-F)][Trp(4-Cl)(βS-Me)][Aib]SW[Aib][Ala(pyrimidin-5-yl)]Q[Dab]G[dPro(4R-Bzl(4-F))])
modifications: ring closure inferred; not fully specified (bridges); printed as Bip4CO2H-4Pal-Phe4COOH-G-Proc4F-SbMeW4Cl-Aib-S-W-Aib-PyrimAla-Q-Dab-G-dProc4Bn4F
B11: SEQ ID NO: 142 (peptide)
peptide: cyclo([Bip(4'-COOH)][4Pal][Phe(4-COOH)]G[Pro(cis-4-F)][Trp(βS-Me,4-F)][Aib]SW[dαMeDab][Ala(pyrimidin-5-yl)]Q[Dab]G[dPro(4R-Bzl(4-F))])
modifications: ring closure inferred; not fully specified (bridges); printed as Bip4CO2H-4Pal-Phe4COOH-G-Proc4F-SbMeW4F-Aib-S-W-daMeDab-PyrimAla-Q-Dab-G-dProc4Bn4F
B12: SEQ ID NO: 140 (peptide)
peptide: cyclo([Bip(4'-COOH)][4Pal][Phe(4-COOH)]G[Pro(cis-4-F)][1Nal(3S-Me)][Aib]SW[Aib][Ala(pyrimidin-5-yl)]Q[Dab]G[dPro(4R-Bzl(4-F))])
modifications: ring closure inferred; not fully specified (bridges); printed as Bip4CO2H-4Pal-Phe4COOH-G-Proc4F-SbMe1Nal-Aib-S-W-Aib-PyrimAla-Q-Dab-G-dProc4Bn4F

target: Recombinant human IL-1β (BioLegend 579404) (human, UniProt P01584 117-269); test: cell-based or functional assay

Binder	MRC5 IC50 [nM]
B1	0.032
B2	0.022
B3	0.034
B4	0.021
B5	0.026
B6	0.031
B7	0.011
B8	0.041
B9	0.045
B10	0.034
B11	0.019
B12	0.033
